Test results: the supplement of paper PMC10126150
± gives the standard deviation of the averaged measurements.

The sequences below were run on ATP (assay: switch fluorescence ratio, 500 uM ATP over buffer (Cy3 cluster intensity, sum of 5 cycles each) (fold (ratio)); higher = stronger signal-on switching upon ATP binding; sequences stand for … in TCGTCGGCAGCGTCAGATGTGTATAAGAGACAGTTTTTTTTTTTTTTTTTTTTTTTTT…TC). Conditions: aptamer strand: ATP DNA aptamer (quencher-CACCTGGGGGAGTATTGCGGAGGAAGG + anchor), 100 nM annealed; ATP concentration: 500 uM.
Outline: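 Clusters with intensities outside 100-1000 RFU were excluded. The remaining Cy3-labelled switching-strand clusters on a modified Illumina MiSeq flow-cell had been annealed to 100 nM quencher-labelled ATP aptamer and imaged in selection buffer, then after 15 min with 500 uM ATP at 22 °C, for five cycles separated by NaOH stripping and re-annealing. The fluorescence ratio, averaged per switch-domain sequence, is each cluster's summed target-cycle Cy3 intensity over its summed buffer-cycle Cy3 intensity.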
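Further: ATP exposure 15 min at 22 °C before imaging.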

ATTCGGTTAT and TCCGTTGCGG are within error of each other in switch fluorescence ratio: 1.01 ± 0.045 for the first, 1.03 ± 0.034 for the second.

TGTAGGGTCA and TCAGGGCGTG are within error of each other in switch fluorescence ratio: 0.9819 ± 0.0023 for the first, 1 ± 0.026 for the second.

TGTTTGTTGT and GTGGACAAGG are within error of each other in switch fluorescence ratio: 1.03 ± 0.063 for the first, 0.978 ± 0.031 for the second.

TTGGGGGCAC and ATTGAGAGAT are within error of each other in switch fluorescence ratio: 1.024 ± 0.0069 for the first, 1.03 ± 0.014 for the second.

Compared with ACCTCTTGGG, GATTTGGAGA is higher in switch fluorescence ratio: 0.9405 ± 0.0011 for the first, 1 ± 0.017 for the second.

TTAAAAAGGT and GGGTTTATCA are within error of each other in switch fluorescence ratio: 1 ± 0.021 for the first, 1.03 ± 0.03 for the second.

TGGGGTAGCA and AATAATGCTT are within error of each other in switch fluorescence ratio: 1.01 ± 0.029 for the first, 0.978 ± 0.014 for the second.

GGTATGGGGA and ATAGGAATGG are within error of each other in switch fluorescence ratio: 1 ± 0.022 for the first, 1.02 ± 0.023 for the second.

Going from AGAGGGGGTG to TGCTGTGGAA, the switch fluorescence ratio rises from 0.96 ± 0.013 to 1.011 ± 0.0096.

CATGATCTCT and AAGGTGTGCG are within error of each other in switch fluorescence ratio: 0.987 ± 0.071 for the first, 1.02 ± 0.024 for the second.

ATTGTGTGGG and GAGCTGGGTC are within error of each other in switch fluorescence ratio: 0.999 ± 0.036 for the first, 1.02 ± 0.071 for the second.

Going from ACTCGCTGGG to AAATTCGAAT, the switch fluorescence ratio falls from 1.11 ± 0.018 to 1.02 ± 0.041.

GGGGGTAACT and TTTTAGGAGA are within error of each other in switch fluorescence ratio: 1 ± 0.034 for the first, 1.02 ± 0.026 for the second.

TTGACTGTTC and GTTTAGATG are within error of each other in switch fluorescence ratio: 1.04 ± 0.043 for the first, 0.989 ± 0.022 for the second.

AGATTAGCGC and GATGAAAGTG are within error of each other in switch fluorescence ratio: 0.9812 ± 0.0063 for the first, 0.99 ± 0.025 for the second.

Compared with ACGCATTTGG, ATGTAACCGT is lower in switch fluorescence ratio: 1.1159 ± 0.00088 for the first, 1.01 ± 0.012 for the second.

TTGCCGGGGT and TCATCTTTTT are within error of each other in switch fluorescence ratio: 1.1 ± 0.16 for the first, 0.9477 ± 0.0022 for the second.

TTTATCGTGG and TCGTTTTGCT are within error of each other in switch fluorescence ratio: 0.9721 ± 0.002 for the first, 0.981 ± 0.017 for the second.

Going from GATAGTGAGG to GCGTTCTCGC, the switch fluorescence ratio falls from 0.9935 ± 0.0021 to 0.968 ± 0.016.

GACGGGGGGT and TTCTAAAGTA are within error of each other in switch fluorescence ratio: 1 ± 0.041 for the first, 0.994 ± 0.014 for the second.

TGAAGGGGCA and ACTTCTCGGT are within error of each other in switch fluorescence ratio: 0.951 ± 0.041 for the first, 0.992 ± 0.017 for the second.

Compared with CAAGGTAAGG, AAGTAAAGCT is higher in switch fluorescence ratio: 0.984 ± 0.011 for the first, 1.11 ± 0.06 for the second.

AAGGTGTCGG and GTGGTGGGTA are within error of each other in switch fluorescence ratio: 0.9895 ± 0.0037 for the first, 0.947 ± 0.073 for the second.

CCTGTGGGGG and GGGGGTAGAC are within error of each other in switch fluorescence ratio: 0.993 ± 0.028 for the first, 1.01 ± 0.026 for the second.

AGAGGCCGAT and ACTATAGTGT are the same in switch fluorescence ratio: 1.022 ± 0.0012 for the first, 1.02 ± 0.022 for the second.

ATTGGTCAAG and TTTTGATTAG are within error of each other in switch fluorescence ratio: 0.985 ± 0.039 for the first, 1.006 ± 0.0015 for the second.

TAATCGGGTT and TTGAGTGCTT are within error of each other in switch fluorescence ratio: 0.996 ± 0.017 for the first, 0.987 ± 0.028 for the second.

GATGTATGTG and GCTATGGTTA are within error of each other in switch fluorescence ratio: 1.02 ± 0.042 for the first, 1 ± 0.013 for the second.

GGTTGGGCTC and TTAAGTTCTT are within error of each other in switch fluorescence ratio: 1.001 ± 0.0099 for the first, 0.996 ± 0.019 for the second.

First: GTTGCCGAGT
Second: CATTTGTGGG
The switch fluorescence ratio of the first is higher: 1.024 ± 0.0048 for the first, 0.993 ± 0.017 for the second.

Going from GAAGCTGAAT to CCAGGCGATG, the switch fluorescence ratio rises from 1.01 ± 0.0029 to 1.05 ± 0.005.

CGTTGGGTTT and CGGGGGCAAG are within error of each other in switch fluorescence ratio: 1.03 ± 0.054 for the first, 1.07 ± 0.016 for the second.

Going from CAATGGCTTT to ATGAAGTTGT, the switch fluorescence ratio rises from 0.9983 ± 0.0059 to 1.019 ± 0.01.

ACTCTTATCG and CGAGAAGAGT are within error of each other in switch fluorescence ratio: 1.02 ± 0.054 for the first, 1.01 ± 0.053 for the second.

ATTGGTCTGC and TATAGGCCTC are within error of each other in switch fluorescence ratio: 1.02 ± 0.04 for the first, 1.001 ± 0.0064 for the second.

AGGATAAGGA and CGTGGGGCAC are within error of each other in switch fluorescence ratio: 0.987 ± 0.029 for the first, 1.01 ± 0.024 for the second.

GAGTAACCAG and AAGGCTGGTG are within error of each other in switch fluorescence ratio: 0.979 ± 0.036 for the first, 1.02 ± 0.015 for the second.

AGTTCCGAGG and AGTAGAGAAT are within error of each other in switch fluorescence ratio: 1.12 ± 0.14 for the first, 1.04 ± 0.017 for the second.

GGAAAAGGTT and CAGGACTTTT are within error of each other in switch fluorescence ratio: 0.9955 ± 0.0073 for the first, 1 ± 0.0083 for the second.

TTGAAGTGTG and AATATTTATT are the same in switch fluorescence ratio: 1.02 ± 0.015 for the first, 1.02 ± 0.0091 for the second.

TTACAAGGAC and AAAGGTTCTG are within error of each other in switch fluorescence ratio: 1.049 ± 0.0089 for the first, 0.992 ± 0.072 for the second.

CGGTAAAGCG and TTTATTTGTC are within error of each other in switch fluorescence ratio: 0.9808 ± 0.0071 for the first, 0.992 ± 0.053 for the second.

Going from CCACCGGGGA to TTTTGGTAAA, the switch fluorescence ratio falls from 1.85 ± 0.49 to 1 ± 0.038.

AGTTTTGAAG and GCATTGTTTT are within error of each other in switch fluorescence ratio: 0.9906 ± 0.0096 for the first, 0.96 ± 0.038 for the second.

Compared with TTTGCTGGAT, TTGAGGTAGT is lower in switch fluorescence ratio: 1.08 ± 0.046 for the first, 0.984 ± 0.014 for the second.

GACTAGGGGT and GTTATCATTT are within error of each other in switch fluorescence ratio: 1.005 ± 0.0078 for the first, 0.989 ± 0.011 for the second.

GCTAAGTCGG and GTTACGGGGG are within error of each other in switch fluorescence ratio: 0.982 ± 0.0085 for the first, 1.02 ± 0.031 for the second.

GCGTGGGCGA and TGCGCCGGGT are within error of each other in switch fluorescence ratio: 1.03 ± 0.045 for the first, 1.12 ± 0.1 for the second.

ATGGGAGGTG and GGGGACGTGG are within error of each other in switch fluorescence ratio: 1.01 ± 0.039 for the first, 0.965 ± 0.011 for the second.

First: ATTGAGTTTA
Second: TTTGATATTC
The switch fluorescence ratio of the first is higher: 0.99883 ± 7e-05 for the first, 0.971 ± 0.022 for the second.
